Our source for the protein stability index values is the supplement of paper PMC10567573.

B1: BTBD1 (parent)
chain: TSAEIELPDVEPAAFLALLRFLYS
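Also: lentivirally expressed fusions sorted by FACS into six bins by GFP to DsRed ratio, PSI derived from sequencing read proportions per bin multiplied by bin number.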

Variants of B1 are the subject of this data set. Briefly: protein stability index of a GFP-peptide fusion (GPS, HEK-293T) (PSI 1-6); higher = more stable. The settings on record: c terminus: a fixed tail appended.
Take TSAEIELPDVEPAATLALLRFLYS: the protein stability index amounted to 1.78.
As to TSAEIELPDVEPAAELALLRFLYS, the protein stability index is 2.31.
The figure for TSAEIELPDVEPAAGLALLRFLYS is 2.23; for TSAEIELPDVEPAAFLALLAFLYS it is 2.08.
With TSAEIELPDVEPAAFLALLHFLYS the figure was 1.79; with TSAEIELPDVEPAAFLALLPFLYS, 2.01.
Consider TSAEIELPDVEPAAFLALLYFLYS, for which the protein stability index came out at 2.09.
As for TSAEIELPDVEPAAFLALLTFLYS, the protein stability index was 4.67.
Consider TSAEIVLPDVEPAAFLALLRFLYS, for which the protein stability index came out at 1.67.
On to TSAEIALPDVEPAAFLALLRFLYS, for which the protein stability index was 2.19.
As for TSAEINLPDVEPAAFLALLRFLYS, the protein stability index was 1.96.
On to TSAEIMLPDVEPAAFLALLRFLYS, for which the protein stability index was 2.22.
TSAEIYLPDVEPAAFLALLRFLYS: the protein stability index came to 1.74.
Regarding TSQEIELPDVEPAAFLALLRFLYS, the protein stability index was found to be 2.01.
For the variant TSMEIELPDVEPAAFLALLRFLYS, the protein stability index was 1.52.
Consider TSREIELPDVEPAAFLALLRFLYS, for which the protein stability index is 2.26.
On to TSNEIELPDVEPAAFLALLRFLYS, for which the protein stability index was 1.96.
With TSKEIELPDVEPAAFLALLRFLYS the figure was 2.17.
As to TSPEIELPDVEPAAFLALLRFLYS, the protein stability index worked out at 2.12.
The figure for TSAEIELPDVEPAAFLASLRFLYS is 1.78; for TSAEIELPDVEPAAFLAHLRFLYS it is 2.55; for TSAEIELPDVEPAAFLAMLRFLYS it is 1.72.
TSAEIELPDVEPAAFLALLRFLYP: the protein stability index worked out at 2.61.
The figure for TSAEIELPDVEPAAFLALLRFLYE is 1.69; for TSAEIELPDVEPAAFLALLRFLYD it is 1.89.
For TSAEIELPDVEPAAFLALLRFLYW, the protein stability index stood at 1.89.
Regarding TSAEQELPDVEPAAFLALLRFLYS, the protein stability index worked out at 2.4.
Consider TSAETELPDVEPAAFLALLRFLYS, for which the protein stability index was 2.18.
The figure for TSAELELPDVEPAAFLALLRFLYS is 1.75; for TSAEIELPDVEPFAFLALLRFLYS it is 1.55; for TSAEIELPDVEPCAFLALLRFLYS it is 1.88.
With TSAEIELPDVEPYAFLALLRFLYS the figure was 1.59.
As to TSAEIELPDVEPKAFLALLRFLYS, the protein stability index came to 2.43.
As to TGAEIELPDVEPAAFLALLRFLYS, the protein stability index was 2.15.
The figure for TQAEIELPDVEPAAFLALLRFLYS is 2.24.
On to TFAEIELPDVEPAAFLALLRFLYS, for which the protein stability index stood at 2.
As to THAEIELPDVEPAAFLALLRFLYS, the protein stability index was 1.82.
On to TWAEIELPDVEPAAFLALLRFLYS, for which the protein stability index is 1.91.
For the variant TNAEIELPDVEPAAFLALLRFLYS, the protein stability index was 1.49.
With TSAEIELPDVEPAAFLALLRFPYS the figure was 2.26.
With TSAEIELPDVEPAAFLALLRFSYS the figure was 1.16.
With TSAEIELPDVEPAAFLALLRFNYS the figure was 2.06; with TSAEIELPDREPAAFLALLRFLYS, 2.09.
Regarding TSAEIELPDFEPAAFLALLRFLYS, the protein stability index is 1.82.
As for TSAEIELPDDEPAAFLALLRFLYS, the protein stability index stood at 2.2.
Turning to TSAEIELPDNEPAAFLALLRFLYS, the protein stability index amounted to 2.08.
With TSAEIELPDEEPAAFLALLRFLYS the figure was 2.35; with TSAEIELPDWEPAAFLALLRFLYS, 1.62.
With TSAEIELPDPEPAAFLALLRFLYS the figure was 2.32; with TSAEIELPDSEPAAFLALLRFLYS, 2.78.
Consider TSAEIELPDVEPAAFLALLRHLYS, for which the protein stability index is 2.14.
TSAEIELPDVEPAAFLALLRWLYS: the protein stability index worked out at 2.41.
Take TSAEIELPDVEPAAFLALLRCLYS: the protein stability index is 1.4.
For the variant TSAEIELPDVEPAAFLALLRGLYS, the protein stability index came to 2.18.
With TSAEIELPDVEPAAFLALLRFLAS the figure was 1.99; with TSAEIELPDVEPAAFLALLRFLSS, 1.36.
In the case of TSAEIELPDVEPAAFLALLRFLRS, the protein stability index was determined as 2.26.
As for TSAEIELPDVEPAAFLALLRFLGS, the protein stability index came to 1.58.
With TSAEIELPDVEPAAFLALFRFLYS the figure was 1.58.
With TSAEIELPDVEPAAFLALKRFLYS, the protein stability index is 2.07.
With TSAEIELPDVEPAAFLALYRFLYS the figure was 2.49; with TSAEIELPDVEPAAFLALGRFLYS, 1.89; with TSAEIELPDVETAAFLALLRFLYS, 1.41.
The figure for TSAEIELPDVEYAAFLALLRFLYS is 2.22.
The figure for TSAEIELPDVESAAFLALLRFLYS is 2.46; for TSAEIELPDVEQAAFLALLRFLYS it is 1.19; for TSAPIELPDVEPAAFLALLRFLYS it is 1.64.
With TSAMIELPDVEPAAFLALLRFLYS, the protein stability index was found to be 1.55.
Turning to TSAEIELPDVEPAAFYALLRFLYS, the protein stability index turned out to be 1.53.
Consider TSAEIELPDVEPAAFIALLRFLYS, for which the protein stability index was 1.62.
For the variant TSAEIELPDVEPAAFHALLRFLYS, the protein stability index stood at 1.74.
In the case of TSAEIELWDVEPAAFLALLRFLYS, the protein stability index stood at 1.53.
Turning to TSAEIELGDVEPAAFLALLRFLYS, the protein stability index is 1.96.
For TSAEIELRDVEPAAFLALLRFLYS, the protein stability index worked out at 1.93.
The figure for TSAEIELPDVEPADFLALLRFLYS is 2.
As for TSAEIELPDVEPAMFLALLRFLYS, the protein stability index amounted to 1.47.
With TSAEIELPDVEPAWFLALLRFLYS the figure was 2.2; with TSAEIELPDVEPAAFLWLLRFLYS, 2; with TSAEIELPDVEPAAFLQLLRFLYS, 1.61.
WSAEIELPDVEPAAFLALLRFLYS: the protein stability index was 1.96.
The figure for QSAEIELPDVEPAAFLALLRFLYS is 1.97.
With LSAEIELPDVEPAAFLALLRFLYS the figure was 2.02; with RSAEIELPDVEPAAFLALLRFLYS, 1.9; with VSAEIELPDVEPAAFLALLRFLYS, 1.88.
The figure for TSAEIEWPDVEPAAFLALLRFLYS is 2.02; for TSAEIESPDVEPAAFLALLRFLYS it is 1.79; for TSAEIETPDVEPAAFLALLRFLYS it is 1.75.
In the case of TSAEIEDPDVEPAAFLALLRFLYS, the protein stability index came out at 2.15.
Consider TSAEIECPDVEPAAFLALLRFLYS, for which the protein stability index turned out to be 1.75.
The figure for TSAEIERPDVEPAAFLALLRFLYS is 2.28; for TSAEIELPDVCPAAFLALLRFLYS it is 1.1; for TSAEIELPDVAPAAFLALLRFLYS it is 1.84.
Regarding TSAEIELPDVIPAAFLALLRFLYS, the protein stability index came out at 2.38.
Take TSAEIELPDVWPAAFLALLRFLYS: the protein stability index is 1.69.
